Reference: paper PMC3617137 (2013)

Molecular target: T1, microtubules (alpha/beta-tubulin) (Sus scrofa, UniProt P02550)
T1 chain 1: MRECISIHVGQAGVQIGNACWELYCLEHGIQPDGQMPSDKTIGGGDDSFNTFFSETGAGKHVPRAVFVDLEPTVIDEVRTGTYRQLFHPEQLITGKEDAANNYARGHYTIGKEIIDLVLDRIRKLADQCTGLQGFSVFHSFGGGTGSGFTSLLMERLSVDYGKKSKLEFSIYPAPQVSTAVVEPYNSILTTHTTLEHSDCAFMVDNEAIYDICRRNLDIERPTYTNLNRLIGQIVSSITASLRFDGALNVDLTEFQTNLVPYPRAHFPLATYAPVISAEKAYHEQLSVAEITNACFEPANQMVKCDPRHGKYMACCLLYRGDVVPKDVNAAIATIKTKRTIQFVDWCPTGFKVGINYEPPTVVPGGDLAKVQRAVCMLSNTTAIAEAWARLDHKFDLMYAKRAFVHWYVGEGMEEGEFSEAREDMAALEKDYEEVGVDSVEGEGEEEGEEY
T1 chain 2: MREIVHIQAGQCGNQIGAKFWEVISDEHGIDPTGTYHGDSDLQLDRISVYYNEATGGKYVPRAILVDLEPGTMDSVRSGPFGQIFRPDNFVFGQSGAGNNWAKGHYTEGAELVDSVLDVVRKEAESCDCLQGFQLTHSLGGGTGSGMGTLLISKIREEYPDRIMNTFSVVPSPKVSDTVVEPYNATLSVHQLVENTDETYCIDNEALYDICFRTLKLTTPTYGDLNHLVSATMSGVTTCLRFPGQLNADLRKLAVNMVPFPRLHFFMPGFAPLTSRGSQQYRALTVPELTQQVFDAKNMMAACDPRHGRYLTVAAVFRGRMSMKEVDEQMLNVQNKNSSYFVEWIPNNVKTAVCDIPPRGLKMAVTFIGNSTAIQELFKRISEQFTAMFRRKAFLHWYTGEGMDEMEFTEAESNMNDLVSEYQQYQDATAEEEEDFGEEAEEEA
Test: microtubule co-sedimentation

Kd: 250 nM
B1: Mars (MBP-N-Mars) 1-430 (protein)
chain: MQRHKELYKEQSLVLSPRNHCQENRDRLQAARAKKREDCFYQNRIISVSPTPVKIKQLAAAQAALTQENVAPKLESPERLDTKPAELLKESNPKVSRQKLYLQRYMEWKIAKTKEHKQQDQKRRGAAINVPTVKQSKALPKSQTFRVPDNLASAKQKEAAPMFQPPKRCSLYMIANPTGKGKAAEPIKPSIPKPTSAAAPPSSNTVAASSALARHKSAASATKIVPAIRQNNNPVALARQKAAARPIPNTTKQTTSVRQPGIEAKKITTTIPRPTPATVTKAKTPGIRQQPPVVSTKPRLPEPPAPRTARLPNVLSKPFEKPLGNKAPVTRRANVVKPQPIRGGGGAAAKFKDTAGATSKAASHSIRMKATKIKSQYTRLQDNVRKLPQLKAELLHAATLDIPPLTPLDDIHNPFIDQATSTQCKSNNSS
modifications: MBP fusion, taxol-stabilized GMPPNP/GDP-NP microtubules
